The record followed here is paper PMC5466061.

In this data set the target is nucleolin (NCL) (Homo sapiens, UniProt P19338 1-710). Nature of the data set: EMSA. A general note: In EMSA bound probe runs differently from free probe, usually more slowly.
Sequence of nucleolin (NCL) (P19338 whole entry): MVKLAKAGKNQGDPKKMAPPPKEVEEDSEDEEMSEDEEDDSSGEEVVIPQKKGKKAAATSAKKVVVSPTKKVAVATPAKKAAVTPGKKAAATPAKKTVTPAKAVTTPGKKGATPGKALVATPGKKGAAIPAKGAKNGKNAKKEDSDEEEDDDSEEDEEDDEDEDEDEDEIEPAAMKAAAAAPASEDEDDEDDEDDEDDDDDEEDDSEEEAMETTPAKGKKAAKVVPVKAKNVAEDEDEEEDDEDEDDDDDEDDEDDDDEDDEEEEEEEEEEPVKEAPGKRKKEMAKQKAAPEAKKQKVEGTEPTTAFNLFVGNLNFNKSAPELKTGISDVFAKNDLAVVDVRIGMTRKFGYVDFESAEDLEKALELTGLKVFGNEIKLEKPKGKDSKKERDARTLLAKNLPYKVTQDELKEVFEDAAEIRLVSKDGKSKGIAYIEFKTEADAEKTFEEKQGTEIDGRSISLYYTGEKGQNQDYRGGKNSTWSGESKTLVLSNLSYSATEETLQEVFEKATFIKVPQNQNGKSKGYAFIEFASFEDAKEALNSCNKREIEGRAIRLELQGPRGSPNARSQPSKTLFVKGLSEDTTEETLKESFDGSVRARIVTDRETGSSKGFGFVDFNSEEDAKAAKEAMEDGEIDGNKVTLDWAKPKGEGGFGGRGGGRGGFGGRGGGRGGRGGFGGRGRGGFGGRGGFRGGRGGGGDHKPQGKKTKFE

On to AGGGGGCTGGGCCGGGGACCCGGGAGGGGTCGGGACGGGGCGGGGT (structured_DNA) [hTert 5-12], for which the binding result is on record as “binds”.

For the molecule GGGTTAGGGTTAGGGTTAGGGTTAGGGTTAGGGTTA (structured_DNA) [(GGGTTA)6], the binding result is on record as “binds”.

GGGTTTGGGTTTGGGTTTGGG (structured_DNA) [(GGGTTT)4 = 333]: the binding result is listed as “binds”.

Turning to GGGTTTGGGTTTGGGTTTTTTTTTGGG (structured_DNA) [n5M4], the binding result was “binds”.

Take GGGTGGGTGGGTGGG (structured_DNA) [111]: the binding result is on record as “binds”.

Take GGGTTTGGGTTTGGGTTTGGGTTTGGG (structured_DNA) [(GGGTTT)5]: the binding result was “binds”.

For the molecule GGGTTTGGGTTTGGGTTTGGGTTTGGGTTTGGGTTT (structured_DNA) [(GGGTTT)6], the binding result is reported as “binds”.

For the molecule TGGGGAGGGTGGGGAGGGTGGGGAAGG (structured_DNA) [c-myc], the binding result is given as “binds”.

In the case of GGGTTTGGGTTTGGGTTTGGGTTTGGGTTTGGGTTTGGGTTTGGGTTT (structured_DNA) [(GGGTTT)8], the binding result is given as “binds”.

For the molecule GGGTTTGGGTTTTTTTTTGGGTTTGGG (structured_DNA) [n5M3], the binding result is given as “binds”.

Take GGGTTTTTTTTTGGGTTTGGGTTTGGG (structured_DNA) [n5M2]: the binding result is “binds”.

B1: (GGGTTA)8 (structured_DNA)
DNA: TCGAGGGTTAGGGTTAGGGTTAGGGTTAGGGTTAGGGTTAGGGTTAGGGTTAC
Consider B1, for which the binding result was “binds”.

B2: hTert 1-12 (structured_DNA)
DNA: AGGGGAGGGGCTGGGAGGGCCCGGAGGGGGCTGGGCCGGGGACCCGGGAGGGGTCGGGACGGGGCGGGGT
As to B2, the binding result is given as “binds”.

As to GGGTTAGGGTTAGGGTTAGGG (structured_DNA) [(GGGTTA)4], the binding result is on record as “binds”.

Turning to AGGGGCGGGCGCGGGAGGAAGGGGGCGGGAGCGGGGCTG (structured_DNA) [bcl-2], the binding result is reported as “binds”.
